Results reported in paper PMC7812809 (Proceedings of the National Academy of Sciences of the …, 2020).

What was measured:
Assay in all cases: negative stain EM
[1] = target: Dendra2 T69A-LdcI (N-terminal fluorescent protein fusion of LdcI) (not stated | E. coli) (UniProt P0A9H3)
[2] = target: LdcI E445A/D447A/R468E triple mutant (E. coli) (UniProt P0A9H3)
[3] = target: LdcI R97E/R468E double mutant (E. coli) (UniProt P0A9H3)
[4] = target: LdcI-Dendra2 T69A (C-terminal fluorescent protein fusion of LdcI) (E. coli | not stated) (UniProt P0A9H3)
[5] = target: LdcI-mGeosM (C-terminal fluorescent protein fusion of LdcI) (E. coli | not stated) (UniProt P0A9H3)
negative stain EM = target: the molecule itself

Dendra2 T69A-LdcI (N-terminal fluorescent protein fusion of LdcI) (from UniProt P0A9H3 1-715) (enzyme)
stoichiometry N [1]: 2

LdcI E445A/D447A/R468E triple mutant (from UniProt P0A9H3 1-715) (enzyme)
stoichiometry N [2]: 10

LdcI R97E/R468E double mutant (from UniProt P0A9H3 1-715) (enzyme)
stoichiometry N [3]: 10

LdcI-Dendra2 T69A (C-terminal fluorescent protein fusion of LdcI) (from UniProt P0A9H3 1-715) (enzyme)
stoichiometry N [4]: 10

LdcI-mGeosM (C-terminal fluorescent protein fusion of LdcI) (from UniProt P0A9H3 1-715) (enzyme)
stoichiometry N [5]: 10

B1: LdcI E445A/D447A double mutant (enzyme, E. coli)
chain: MNVIAILNHMGVYFKEEPIRELHRALERLNFQIVYPNDRDDLLKLIENNARLCGVIFDWDKYNLELCEEISKMNENLPLYAFANTYSTLDVSLNDLRLQISFFEYALGAAEDIANKIKQTTDEYINTILPPLTKALFKYVREGKYTFCTPGHMGGTAFQKSPVGSLFYDFFGPNTMKSDISISVSELGSLLDHSGPHKEAEQYIARVFNADRSYMVTNGTSTANKIVGMYSAPAGSTILIDRNCHKSLTHLMMMSDVTPIYFRPTRNAYGILGGIPQSEFQHATIAKRVKETPNATWPVHAVITNSTYDGLLYNTDFIKKTLDVKSIHFDSAWVPYTNFSPIYEGKCGMSGGRVEGKVIYETQSTHKLLAAFSQASMIHVKGDVNEETFNEAYMMHTTTSPHYGIVASTETAAAMMKGNAGKRLINGSIERAIKFRKEIKRLRTASAGWFFDVWQPDHIDTTECWPLRSDSTWHGFKNIDNEHMYLDPIKVTLLTPGMEKDGTMSDFGIPASIVAKYLDEHGIVVEKTGPYNLLFLFSIGIDKTKALSLLRALTDFKRAFDLNLRVKNMLPSLYREDPEFYENMRIQELAQNIHKLIVHHNLPDLMYRAFEVLPTMVMTPYAAFQKELHGMTEEVYLDEMVGRINANMILPYPPGVPLVMPGEMITEESRPVLEFLQMLCEIGAHYPGFETDIHGAYRQADGRYTVKVLKEESKK
binding result (negative stain EM): binds

B2: LdcI R97E (enzyme, E. coli)
chain: MNVIAILNHMGVYFKEEPIRELHRALERLNFQIVYPNDRDDLLKLIENNARLCGVIFDWDKYNLELCEEISKMNENLPLYAFANTYSTLDVSLNDLELQISFFEYALGAAEDIANKIKQTTDEYINTILPPLTKALFKYVREGKYTFCTPGHMGGTAFQKSPVGSLFYDFFGPNTMKSDISISVSELGSLLDHSGPHKEAEQYIARVFNADRSYMVTNGTSTANKIVGMYSAPAGSTILIDRNCHKSLTHLMMMSDVTPIYFRPTRNAYGILGGIPQSEFQHATIAKRVKETPNATWPVHAVITNSTYDGLLYNTDFIKKTLDVKSIHFDSAWVPYTNFSPIYEGKCGMSGGRVEGKVIYETQSTHKLLAAFSQASMIHVKGDVNEETFNEAYMMHTTTSPHYGIVASTETAAAMMKGNAGKRLINGSIERAIKFRKEIKRLRTESDGWFFDVWQPDHIDTTECWPLRSDSTWHGFKNIDNEHMYLDPIKVTLLTPGMEKDGTMSDFGIPASIVAKYLDEHGIVVEKTGPYNLLFLFSIGIDKTKALSLLRALTDFKRAFDLNLRVKNMLPSLYREDPEFYENMRIQELAQNIHKLIVHHNLPDLMYRAFEVLPTMVMTPYAAFQKELHGMTEEVYLDEMVGRINANMILPYPPGVPLVMPGEMITEESRPVLEFLQMLCEIGAHYPGFETDIHGAYRQADGRYTVKVLKEESKK
binding result (negative stain EM): binds

B3: LdcI H694A (enzyme, E. coli)
chain: MNVIAILNHMGVYFKEEPIRELHRALERLNFQIVYPNDRDDLLKLIENNARLCGVIFDWDKYNLELCEEISKMNENLPLYAFANTYSTLDVSLNDLRLQISFFEYALGAAEDIANKIKQTTDEYINTILPPLTKALFKYVREGKYTFCTPGHMGGTAFQKSPVGSLFYDFFGPNTMKSDISISVSELGSLLDHSGPHKEAEQYIARVFNADRSYMVTNGTSTANKIVGMYSAPAGSTILIDRNCHKSLTHLMMMSDVTPIYFRPTRNAYGILGGIPQSEFQHATIAKRVKETPNATWPVHAVITNSTYDGLLYNTDFIKKTLDVKSIHFDSAWVPYTNFSPIYEGKCGMSGGRVEGKVIYETQSTHKLLAAFSQASMIHVKGDVNEETFNEAYMMHTTTSPHYGIVASTETAAAMMKGNAGKRLINGSIERAIKFRKEIKRLRTESDGWFFDVWQPDHIDTTECWPLRSDSTWHGFKNIDNEHMYLDPIKVTLLTPGMEKDGTMSDFGIPASIVAKYLDEHGIVVEKTGPYNLLFLFSIGIDKTKALSLLRALTDFKRAFDLNLRVKNMLPSLYREDPEFYENMRIQELAQNIHKLIVHHNLPDLMYRAFEVLPTMVMTPYAAFQKELHGMTEEVYLDEMVGRINANMILPYPPGVPLVMPGEMITEESRPVLEFLQMLCEIGAHYPGFETDIAGAYRQADGRYTVKVLKEESKK
binding result (negative stain EM): binds

B4: LdcI H694N (enzyme, E. coli)
chain: MNVIAILNHMGVYFKEEPIRELHRALERLNFQIVYPNDRDDLLKLIENNARLCGVIFDWDKYNLELCEEISKMNENLPLYAFANTYSTLDVSLNDLRLQISFFEYALGAAEDIANKIKQTTDEYINTILPPLTKALFKYVREGKYTFCTPGHMGGTAFQKSPVGSLFYDFFGPNTMKSDISISVSELGSLLDHSGPHKEAEQYIARVFNADRSYMVTNGTSTANKIVGMYSAPAGSTILIDRNCHKSLTHLMMMSDVTPIYFRPTRNAYGILGGIPQSEFQHATIAKRVKETPNATWPVHAVITNSTYDGLLYNTDFIKKTLDVKSIHFDSAWVPYTNFSPIYEGKCGMSGGRVEGKVIYETQSTHKLLAAFSQASMIHVKGDVNEETFNEAYMMHTTTSPHYGIVASTETAAAMMKGNAGKRLINGSIERAIKFRKEIKRLRTESDGWFFDVWQPDHIDTTECWPLRSDSTWHGFKNIDNEHMYLDPIKVTLLTPGMEKDGTMSDFGIPASIVAKYLDEHGIVVEKTGPYNLLFLFSIGIDKTKALSLLRALTDFKRAFDLNLRVKNMLPSLYREDPEFYENMRIQELAQNIHKLIVHHNLPDLMYRAFEVLPTMVMTPYAAFQKELHGMTEEVYLDEMVGRINANMILPYPPGVPLVMPGEMITEESRPVLEFLQMLCEIGAHYPGFETDINGAYRQADGRYTVKVLKEESKK
binding result (negative stain EM): binds
